For five molecules, binding result and Kd results are on record in patent US20210198360 (published 2021).

Test [1] concerns the target human PD1-Fc (human, UniProt Q15116). The experiment in a line: BLI, bivalent.
Test [2] addresses human PD-L1-Fc (human). The test is described as follows: BLI, bivalent.
For test [3], the target named is T1, mouse PD-L2-Fc (mouse, UniProt Q9WUL5).
T1 chain: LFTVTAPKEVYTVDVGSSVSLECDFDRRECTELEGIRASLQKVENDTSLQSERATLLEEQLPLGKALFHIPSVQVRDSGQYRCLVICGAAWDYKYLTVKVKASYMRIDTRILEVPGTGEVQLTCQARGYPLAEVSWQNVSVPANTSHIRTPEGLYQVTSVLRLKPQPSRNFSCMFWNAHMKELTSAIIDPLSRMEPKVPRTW
The test is described as follows: BLI, bivalent.

Test [4] has as its target T2, human PD-L2-HIS (human, UniProt Q9BQ51).
T2 chain: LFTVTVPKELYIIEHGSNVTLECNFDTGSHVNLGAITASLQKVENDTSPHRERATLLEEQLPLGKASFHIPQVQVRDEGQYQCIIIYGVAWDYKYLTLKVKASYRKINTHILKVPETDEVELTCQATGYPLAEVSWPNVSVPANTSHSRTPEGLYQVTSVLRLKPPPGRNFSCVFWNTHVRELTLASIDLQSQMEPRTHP
The experiment in a line: BLI, monovalent.

Test [5] deals with T3, human PD-L2-Fc (human, UniProt Q9BQ51).
T3 chain: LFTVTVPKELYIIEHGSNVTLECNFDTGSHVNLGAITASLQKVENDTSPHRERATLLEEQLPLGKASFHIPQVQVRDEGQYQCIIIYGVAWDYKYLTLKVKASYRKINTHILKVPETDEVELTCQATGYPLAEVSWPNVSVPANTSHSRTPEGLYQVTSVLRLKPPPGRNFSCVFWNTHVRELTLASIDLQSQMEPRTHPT
The experiment in a line: BLI, bivalent.

Test [6] concerns the target T3, human PD-L2-Fc. The experiment in a line: BLI, monovalent.
Test [7] has as its target T4, mouse PD-L1-Fc (mouse, UniProt Q9EP73). The experiment in a line: BLI, bivalent.
For test [8], the target named is human PD-L1-Fc (human). The experiment in a line: BLI.
Sequence of human PD-L1-Fc (human) (chain, as listed by the source): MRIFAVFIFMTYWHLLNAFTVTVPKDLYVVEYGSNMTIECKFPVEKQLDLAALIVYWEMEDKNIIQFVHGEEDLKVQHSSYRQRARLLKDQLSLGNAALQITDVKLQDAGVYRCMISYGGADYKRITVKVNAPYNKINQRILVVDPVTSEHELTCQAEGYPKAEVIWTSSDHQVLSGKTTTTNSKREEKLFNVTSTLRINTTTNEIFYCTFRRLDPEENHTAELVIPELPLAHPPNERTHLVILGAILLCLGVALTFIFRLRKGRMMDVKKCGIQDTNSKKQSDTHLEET
Test [9] concerns the target T4, mouse PD-L1-Fc. The test is described as follows: BLI, bivalent. This is another data set of the same source.

Sequence of human PD1-Fc (Q15116 25-170): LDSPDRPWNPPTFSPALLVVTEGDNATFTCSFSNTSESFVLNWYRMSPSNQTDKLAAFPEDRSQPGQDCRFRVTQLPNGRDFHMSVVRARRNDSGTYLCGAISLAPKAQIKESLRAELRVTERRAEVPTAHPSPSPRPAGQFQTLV
T4 sequence (Q9EP73 19-239): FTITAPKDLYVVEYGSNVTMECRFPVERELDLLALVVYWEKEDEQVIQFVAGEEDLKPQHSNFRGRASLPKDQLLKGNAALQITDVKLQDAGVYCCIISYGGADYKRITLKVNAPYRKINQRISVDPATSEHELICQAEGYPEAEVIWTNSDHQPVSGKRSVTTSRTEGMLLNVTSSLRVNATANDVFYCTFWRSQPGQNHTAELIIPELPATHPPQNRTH

B1: ADI-20803 (antibody, V domains shown)
VH: QVQLVQSGAEVKKPGSSVKVSCKASGGTFRLYAISWVRQAPGQGLEWMGSIIPGFGSANYAQKFQGRVTITADESTSTAYMELSSLRSEDTAVYYCARDGGGGTSAYSFDPWGQGTLVTVSS
VL: EIVLTQSPATLSLSPGERATLSCRASQSVSSYLAWYQQKPGQAPRLLIYDASNRATGIPARFSGSGSGTDFTLTISSLEPEDFAVYYCQQSINFPYTFGGGTKVEIK
B1: the binding result in [1], in [3], in test [4] and in test [5] was “no binding” throughout. In [2], this molecule returned a Kd of 188 pM.

B2: ADI-20803 Fab (antibody, V domains shown)
VH: B1 VH
VL: B1 VL
B2: the binding result in test [6] is on record as “no binding”.

B3: ADI-16403 (antibody, V domains shown)
VH: EVQLVESGGGLVQPGGSLRLSCAASGFTFSSYWMSWVRQAPGKGLEWVANIKSDGSEKYYVDSVKGRFTISRDNAKNSLYLQMNSLRAEDTAVYYCARVTYWADYMDVWGKGTTVTVSS
VL: DIQMTQSPSTLSASVGDRVTITCRASQSISSWLAWYQQKPGKAPKLLIYKASSLESGVPSRFSGSGSGTEFTLTISSLQPDDFATYYCQQSGSLPPTFGGGTKVEIK
As for B3, the binding result in test [7], in test [1], in test [3] and in [5] was “no binding” throughout.

B4: ADI-20227 (antibody, V domains shown)
VH: QVQLQESGPGLVKPSQTLSLTCTVSGGSIVSGGLYWSWIRQHPGKGLEWIGYIYYAGVTYYNPSLKSRVTISVDTSKNQFSLKLSSVTAADTAVYYCARGPRMGLAGMDVWGQGTTVTVSS
VL: DIQMTQSPSSVSASVGDRVTITCRASQGISSWLAWYQQKPGKAPKLLIYAASSLQSGVPSRFSGSGSGTDFTLTISSLQPEDFATYYCQQANSFPITFGGGTKVEIK
In the case of B4, the binding result in test [1], in [3], in test [4] and in [5] was “no binding” in each case. Further, the Kd amounted to 179 pM in [8] and 101 pM in test [9].

B5: ADI-20227 Fab (antibody, V domains shown)
VH: B4 VH
VL: B4 VL
Consider B5, for which the binding result in test [6] was “no binding”.
